Experimental findings from paper PMC10213050 (Nature Communications, 2023) are described below.

In one data set the target is Rad51 (Saccharomyces cerevisiae (yeast), UniProt P25454 1-400). The data set can be described thus: pull-down; ATP; Pull-down: 42 mM Tris-HCl pH 7.5, 15 mM KCl, 90 mM NaCl, 2 mM ATP, 1 mM EDTA, 0.5% NP-40, 1 mM DTT, 20 ug/mL BSA, 5% glycerol, 37 C; EMSA: 42 mM MOPS pH 7.2, 3. Conditions: protein: recombinant; tags: 6xHis (pET30a) or GST-cleaved; label: 5'-biotin.
Another data set addresses hRad51 (Homo sapiens, UniProt Q06609 1-339). The description is as above. Conditions: protein: recombinant; tags: 6xHis or GST-cleaved; chain copies: 10; label: 5'-biotin.
The target in another data set is T1, Bre1 (Saccharomyces cerevisiae (yeast), UniProt Q07457 1-700).
T1 sequence: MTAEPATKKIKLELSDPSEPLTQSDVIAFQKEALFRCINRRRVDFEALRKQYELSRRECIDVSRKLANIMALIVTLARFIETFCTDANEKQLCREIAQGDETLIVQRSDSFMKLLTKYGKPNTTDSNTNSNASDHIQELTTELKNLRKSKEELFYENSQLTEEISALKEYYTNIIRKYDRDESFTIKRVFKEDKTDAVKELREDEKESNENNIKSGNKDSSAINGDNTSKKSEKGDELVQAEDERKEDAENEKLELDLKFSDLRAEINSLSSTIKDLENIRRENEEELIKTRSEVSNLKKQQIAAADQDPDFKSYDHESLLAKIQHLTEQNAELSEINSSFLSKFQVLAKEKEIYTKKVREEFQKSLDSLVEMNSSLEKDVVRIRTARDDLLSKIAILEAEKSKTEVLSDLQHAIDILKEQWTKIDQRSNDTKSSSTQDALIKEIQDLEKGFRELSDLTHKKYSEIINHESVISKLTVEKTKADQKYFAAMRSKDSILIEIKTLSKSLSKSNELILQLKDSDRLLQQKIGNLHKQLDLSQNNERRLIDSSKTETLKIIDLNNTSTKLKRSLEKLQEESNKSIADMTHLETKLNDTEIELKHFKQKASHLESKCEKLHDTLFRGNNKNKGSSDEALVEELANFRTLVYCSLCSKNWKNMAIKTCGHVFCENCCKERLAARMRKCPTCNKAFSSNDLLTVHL
The data set can be described thus: pull-down; Bre1 alone; Pull-down: 42 mM Tris-HCl pH 7.5, 15 mM KCl, 90 mM NaCl, 2 mM ATP, 1 mM EDTA, 0.5% NP-40, 1 mM DTT, 20 ug/mL BSA, 5% glycerol, 37 C; EMSA: 42 mM MOPS pH 7.2, 3. Conditions: protein: recombinant; tags: 6xHis; label: 5'-biotin. On the technique in general: A gel shift assay detects complexes by their altered migration in electrophoresis.

The next data set has as its target Srs2 (Saccharomyces cerevisiae (yeast), UniProt P12954 1-1174). The data set can be described thus: pull-down; 200 nM ssDNA; Pull-down: 42 mM Tris-HCl pH 7.5, 15 mM KCl, 90 mM NaCl, 2 mM ATP, 1 mM EDTA, 0.5% NP-40, 1 mM DTT, 20 ug/mL BSA, 5% glycerol, 37 C; EMSA: 42 mM MOPS pH 7.2, 3. Conditions: protein: recombinant; tags: GST (pGEX-6p-1); label: 5'-biotin.
In another data set the target is RNF20N (Homo sapiens, UniProt Q5VTR2 1-300). The data set can be described thus: pull-down; RNF20N alone; Pull-down: 42 mM Tris-HCl pH 7.5, 15 mM KCl, 90 mM NaCl, 2 mM ATP, 1 mM EDTA, 0.5% NP-40, 1 mM DTT, 20 ug/mL BSA, 5% glycerol, 37 C; EMSA: 42 mM MOPS pH 7.2, 3. Conditions: protein: recombinant; tags: GST (pGEX-6p-1); label: 5'-biotin.
A further data set has as its target Rad51;Bre1 (Saccharomyces cerevisiae …, UniProt P25454;Q07457 1-400;1-700, |). The data set can be described thus: pull-down; ATP; Bre1 stimulates Rad51 binding and is co-captured; Pull-down: 42 mM Tris-HCl pH 7.5, 15 mM KCl, 90 mM NaCl, 2 mM ATP, 1 mM EDTA, 0.5% NP-40, 1 mM DTT, 20 ug/mL BSA, 5% glycerol, 37 C; EMSA: 42 mM MOPS pH 7.2, 3. Conditions: protein: recombinant;recombinant; tags: 6xHis (pET30a) or GST-cleaved;6xHis; label: 5'-biotin.

The next data set addresses hRad51;RNF20N (Homo sapiens;Homo sapiens, UniProt Q06609;Q5VTR2 1-339;1-300, |). Kind of data set: pull-down; ATP; RNF20N stimulates hRad51 binding and is co-captured; Pull-down: 42 mM Tris-HCl pH 7.5, 15 mM KCl, 90 mM NaCl, 2 mM ATP, 1 mM EDTA, 0.5% NP-40, 1 mM DTT, 20 ug/mL BSA, 5% glycerol, 37 C; EMSA: 42 mM MOPS pH 7.2, 3. Conditions: protein: recombinant;recombinant; tags: 6xHis or GST-cleaved;GST (pGEX-6p-1); label: 5'-biotin.

Chain of Rad51 (P25454 whole entry): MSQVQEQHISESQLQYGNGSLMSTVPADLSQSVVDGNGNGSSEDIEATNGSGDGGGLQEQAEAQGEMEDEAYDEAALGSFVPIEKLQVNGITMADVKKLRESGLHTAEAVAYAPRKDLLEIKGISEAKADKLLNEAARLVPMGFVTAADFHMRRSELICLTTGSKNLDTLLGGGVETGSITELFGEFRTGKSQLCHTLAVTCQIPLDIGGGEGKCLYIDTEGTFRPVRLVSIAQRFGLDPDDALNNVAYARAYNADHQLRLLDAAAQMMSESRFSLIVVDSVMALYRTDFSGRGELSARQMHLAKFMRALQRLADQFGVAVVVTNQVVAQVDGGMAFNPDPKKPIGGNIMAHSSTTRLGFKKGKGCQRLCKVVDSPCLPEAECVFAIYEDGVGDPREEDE
Chain of Rad51;Bre1 (P25454 whole entry, one chain of several): as the sequence (P25454 whole entry) above
Chain of hRad51 (Q06609 whole entry): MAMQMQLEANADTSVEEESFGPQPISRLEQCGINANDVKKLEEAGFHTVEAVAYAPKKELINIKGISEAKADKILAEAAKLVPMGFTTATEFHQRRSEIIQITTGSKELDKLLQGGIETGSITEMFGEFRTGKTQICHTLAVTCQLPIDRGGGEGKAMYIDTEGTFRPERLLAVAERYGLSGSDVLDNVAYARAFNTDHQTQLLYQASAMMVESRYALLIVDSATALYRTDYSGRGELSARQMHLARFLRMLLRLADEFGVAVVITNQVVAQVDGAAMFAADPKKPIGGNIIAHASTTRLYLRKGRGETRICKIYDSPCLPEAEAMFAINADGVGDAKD
Chain of hRad51;RNF20N (Q06609 whole entry, chain 1 of 2): as the sequence (Q06609 whole entry) above
Chain of hRad51;RNF20N (Q5VTR2 1-300, chain 2 of 2): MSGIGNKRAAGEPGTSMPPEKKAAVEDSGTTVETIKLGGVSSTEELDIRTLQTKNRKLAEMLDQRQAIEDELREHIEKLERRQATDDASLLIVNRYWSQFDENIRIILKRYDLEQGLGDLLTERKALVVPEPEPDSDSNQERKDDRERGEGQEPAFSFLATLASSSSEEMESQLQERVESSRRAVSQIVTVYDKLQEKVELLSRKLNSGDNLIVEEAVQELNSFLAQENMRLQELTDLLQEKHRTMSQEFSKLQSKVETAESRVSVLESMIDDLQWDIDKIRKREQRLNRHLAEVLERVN
Chain of RNF20N (Q5VTR2 1-300): as the sequence (Q5VTR2 1-300, chain 2 of 2) above
Chain of Srs2 (P12954 whole entry): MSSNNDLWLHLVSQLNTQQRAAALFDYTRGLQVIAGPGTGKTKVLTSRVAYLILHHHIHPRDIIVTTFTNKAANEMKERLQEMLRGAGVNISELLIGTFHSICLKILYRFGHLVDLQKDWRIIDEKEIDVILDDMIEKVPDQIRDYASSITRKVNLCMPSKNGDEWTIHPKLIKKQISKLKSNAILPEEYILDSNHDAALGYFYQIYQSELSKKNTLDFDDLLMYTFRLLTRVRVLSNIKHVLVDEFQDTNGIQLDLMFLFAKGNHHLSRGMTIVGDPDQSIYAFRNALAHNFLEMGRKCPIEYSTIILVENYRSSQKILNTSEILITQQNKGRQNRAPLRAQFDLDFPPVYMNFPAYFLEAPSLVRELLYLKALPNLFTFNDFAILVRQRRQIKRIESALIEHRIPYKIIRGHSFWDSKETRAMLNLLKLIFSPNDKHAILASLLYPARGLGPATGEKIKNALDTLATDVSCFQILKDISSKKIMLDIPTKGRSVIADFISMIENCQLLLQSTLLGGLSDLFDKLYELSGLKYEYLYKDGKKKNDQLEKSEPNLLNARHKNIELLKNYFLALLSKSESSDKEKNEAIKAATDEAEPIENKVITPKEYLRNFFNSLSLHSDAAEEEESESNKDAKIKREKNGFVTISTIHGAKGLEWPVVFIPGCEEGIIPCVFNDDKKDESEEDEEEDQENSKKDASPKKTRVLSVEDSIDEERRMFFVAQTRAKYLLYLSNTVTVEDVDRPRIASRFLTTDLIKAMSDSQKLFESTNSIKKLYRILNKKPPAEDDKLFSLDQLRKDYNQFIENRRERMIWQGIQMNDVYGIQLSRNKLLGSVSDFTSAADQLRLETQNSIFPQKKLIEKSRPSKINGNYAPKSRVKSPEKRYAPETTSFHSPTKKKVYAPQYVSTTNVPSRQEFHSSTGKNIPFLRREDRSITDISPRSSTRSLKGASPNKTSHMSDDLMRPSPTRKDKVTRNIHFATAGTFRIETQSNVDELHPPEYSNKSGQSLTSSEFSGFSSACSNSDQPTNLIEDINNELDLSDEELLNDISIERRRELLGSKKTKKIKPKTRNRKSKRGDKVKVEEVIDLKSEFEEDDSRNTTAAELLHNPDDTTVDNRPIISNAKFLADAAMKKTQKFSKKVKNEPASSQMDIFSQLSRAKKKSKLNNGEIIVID

B1: 90-nt ssDNA (ssDNA)
DNA: CGACAGGTCATGGCCGTACATGATATCCTCGAGCGTCCTGTTGCAACTTACACTCTGAATAGCCGAATTCTTAGGGTTAGGGTTAACA
For B1, the binding result is listed as “binds” with Rad51; “binds” with hRad51; “no binding” in the data set with Bre1; “binds” in the data set with Srs2; “no binding” in the data set with RNF20N; “binds” with Rad51;Bre1. Further, the binding result in the data set with hRad51;RNF20N is recorded as “binds”.
